B1: non-specific serine/threonine protein kinase, O49003 (parent)
chain: MASKGAGGGGGGHEEPQRPKQQLPRDSRGSLEVFNPSSSSAAVEPPSAFRPAARSASPFIEEATGGIEDVGKATQRAAEWGLVLQTNEQTGRPQGVSARSSGGGGSARSSSDDKAVAGAIPRVSEELRAALSAFQQTFVVSDASRPGHPIMYASAGFFNMTGYTSKEVVGRNCRFLQGSGTDPAEIAKIRQALANGSNYCGRVLNYKKDGTAFWNLLTIAPIKDEEGRVLKFIGMQVEVSKYTEGNKDTVVRPNGLPESLIKYDARQKDQARSSVSELLLAIKNPRSLSESTNSTFKRKSQESVGALTGDRPGKRSSESGSRRNSKSGARTSLQKISEVPERGSKSRKSGLYSLMSLLGMGPGNIEKDMLKPRDEDPLLDSDDERPESFDDELRRKEMRRGIDLATTLERIEKNFVITDPRLPDNPIIFASDSFLQLTEYSREEILGRNCRFLQGPETDRATVRKIRDAIDNQTEVTVQLINYTKSGKKFWNLFHLQPMRDQKGDVQYFIGVQLDGTEHVRDAAEREGVMLIKKTAENIDEAAKELPDANLRPEDLWANHSKVVLPKPHMKDSASWRAIQKVLEGGENIDLKHFRPVKPLGSGDTGSVHLVELLNTGEYFAMKAMDKNVMLNRNKVHRANAEREILDMLDHPFLPTLYASFQTKTHICLITDYYPGGELFLLLDRQPLKVLREDAVRFYAAEVVIALEYLHCQGIIYRDLKPENILLHRDGHISLTDFDLSCLTSCRPQVFLPEEANKKSRRKSRSSPIFFAEPMRASNSFVGTEEYIAPEIITGAGHTSAVDWWALGILLYEMLYGYTPFRGKTRQRTFANILHKDIRFPASISVSLPARQLIYRLLHRDPSNRLGSYEGSNEIKEHPFFRGINWALVRGTAPPKLDAPLFPDDTDKGMGDAAAADTHTDMF

Variants of: B1
Settings: Avena sativa; pH 4; Thermal; CD; Sodium acetate; transition: 2; reversible: partially reversible; structure 2V0U; whole UniProt chain shown

Variant | Tm | change of melting temperature, mutant - wild type (higher = more stable)
C450A | 51 °C | 0.7 °C

Same assay, conditions: Avena sativa; pH 4; Thermal; DSC; Sodium acetate; transition: 2; reversible: partially reversible; structure 2V0U; whole UniProt chain shown

Variant | Tm | change of melting temperature, mutant - wild type (higher = more stable)
C450A | 50.7 °C | 2.7 °C

Same assay, conditions: Avena sativa; pH 4; Thermal; fluorescence; Sodium acetate; transition: 2; reversible: partially reversible; structure 2V0U; whole UniProt chain shown

Variant | Tm | change of melting temperature, mutant - wild type (higher = more stable)
C450A | 49.9 °C | 2.8 °C

Same assay, conditions: Avena sativa; pH 7; 20 °C; Urea; fluorescence; sodium phosphate; transition: 2; reversible: no; structure 2V0U; whole UniProt chain shown

Variant | ddG of mutation (higher = less stable) | denaturant m value | denaturant midpoint (higher = more stable) | unfolding free energy
C450A | -2.01 kJ/mol | 1.67 kcal/mol/M | 3.39 M | 25.4 kJ/mol

Same assay, conditions: Avena sativa; pH 7; Thermal; CD; sodium phosphate; transition: 2; reversible: partially reversible; structure 2V0U; whole UniProt chain shown

Variant | Tm | change of melting temperature, mutant - wild type (higher = more stable)
C450A | 64.4 °C | 3.3 °C

Same assay, conditions: Avena sativa; pH 7; Thermal; DSC; sodium phosphate; transition: 2; reversible: partially reversible; structure 2V0U; whole UniProt chain shown

Variant | Tm | change of melting temperature, mutant - wild type (higher = more stable)
C450A | 65 °C | 3.1 °C

Same assay, conditions: Avena sativa; pH 7; Thermal; fluorescence; sodium phosphate; transition: 2; reversible: partially reversible; structure 2V0U; whole UniProt chain shown

Variant | Tm | change of melting temperature, mutant - wild type (higher = more stable)
C450A | 63.6 °C | 3.8 °C

Same assay, conditions: Avena sativa; pH 8; Thermal; CD; sodium phosphate; transition: 2; reversible: partially reversible; structure 2V0U; whole UniProt chain shown

Variant | Tm | change of melting temperature, mutant - wild type (higher = more stable)
C450A | 64.4 °C | 2.6 °C

Same assay, conditions: Avena sativa; pH 8; Thermal; DSC; sodium phosphate; transition: 2; reversible: partially reversible; structure 2V0U; whole UniProt chain shown

Variant | Tm | change of melting temperature, mutant - wild type (higher = more stable)
C450A | 63.8 °C | 3.7 °C

Same assay, conditions: Avena sativa; pH 8; Thermal; fluorescence; sodium phosphate; transition: 2; reversible: partially reversible; structure 2V0U; whole UniProt chain shown

Variant | Tm | change of melting temperature, mutant - wild type (higher = more stable)
C450A | 63.5 °C | 3.4 °C

Same assay, conditions: Avena sativa; pH 9; Thermal; DSC; glycine; transition: 2; reversible: partially reversible; structure 2V0U; whole UniProt chain shown

Variant | Tm | change of melting temperature, mutant - wild type (higher = more stable)
C450A | 66 °C | 4.2 °C

Same assay, conditions: Avena sativa; pH 9; Thermal; fluorescence; glycine; transition: 2; reversible: partially reversible; structure 2V0U; whole UniProt chain shown

Variant | Tm | change of melting temperature, mutant - wild type (higher = more stable)
C450A | 63.5 °C | 2.6 °C
